Assay results published in US20030068675, “Position dependent recognition of GNN nucleotide triplets by zinc fingers” (published 2003).
Where a chain is given by its changes, count along the chain named.

Tests used:
Test in all cases: EMSA
Conditions in all cases: tags: MBP fusion
ZFP SBS#1183 = molecular target: T1, ZFP SBS#1183 (synthetic)
T1 chain: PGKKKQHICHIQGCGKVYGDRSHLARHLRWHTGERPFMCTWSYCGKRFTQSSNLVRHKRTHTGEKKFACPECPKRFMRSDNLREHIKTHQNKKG
How it was run: (§1)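 Purified ZFP was titrated against labeled double-stranded target (1 nM or lower, at least 10-fold below expected Kd) carrying the natural binding site with flanks. Binding buffer was 10 mM Tris pH 7.5, 100 mM KCl, 1 mM MgCl2, 0.1 mM ZnCl2, 5 mM DTT, 10% glycerol, 0.02% BSA, with equilibration for at least 45 min. Bound and free target were separated on a 10% polyacrylamide gel.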

ZFP SBS#1182 = ZFP SBS#1182 (synthetic)
How it was run: as §1

ZFP SBS#1164 = molecular target: T2, ZFP SBS#1164 (synthetic)
T2 chain: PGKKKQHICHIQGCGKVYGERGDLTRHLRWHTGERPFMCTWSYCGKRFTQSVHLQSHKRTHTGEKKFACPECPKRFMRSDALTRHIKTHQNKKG
How it was run: as §1

ZFP SBS#1163 = molecular target: T3, ZFP SBS#1163 (synthetic)
T3 chain: T2 chain with V52G, Q55T, S56T
How it was run: as §1

ZFP SBS#1177 = molecular target: T4, ZFP SBS#1177 (synthetic)
T4 chain: T1 chain with D20Q, R21S, S22G, H23S, A25T, Q50D, S51R, N53H, V55A, N81T
How it was run: as §1

ZFP SBS#1168 = ZFP SBS#1168 (synthetic)
How it was run: as §1

ZFP SBS#1090 = molecular target: T5, ZFP SBS#1090 (synthetic, UniProt P08047)
T5 chain: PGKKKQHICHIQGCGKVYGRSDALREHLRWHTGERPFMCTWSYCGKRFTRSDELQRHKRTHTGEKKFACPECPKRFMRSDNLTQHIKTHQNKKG
How it was run: as §1

ZFP SBS#1099 = molecular target: T6, ZFP SBS#1099 (synthetic)
T6 chain: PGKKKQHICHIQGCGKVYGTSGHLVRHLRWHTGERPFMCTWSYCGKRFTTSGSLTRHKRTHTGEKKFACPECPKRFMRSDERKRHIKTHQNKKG
How it was run: as §1

ZFP SBS#1093 = ZFP SBS#1093 (synthetic)
How it was run: as §1

ZFP SBS#1171 = molecular target: T7, ZFP SBS#1171 (synthetic)
T7 chain: T5 chain with A23D, E26T, E53N, Q55A, N81E, L82R, T83K, Q84R
How it was run: as §1

ZFP SBS#1159 = molecular target: T8, ZFP SBS#1159 (synthetic)
T8 chain: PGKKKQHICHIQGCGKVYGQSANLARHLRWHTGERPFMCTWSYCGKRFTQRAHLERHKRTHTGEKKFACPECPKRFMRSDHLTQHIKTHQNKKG
How it was run: as §1

ZFP SBS#1158 = ZFP SBS#1158 (synthetic)
How it was run: as §1

ZFP SBS#1162 = molecular target: T9, ZFP SBS#1162 (synthetic)
T9 chain: T2 chain with E20Q, R21S, D23A, Q50R, S51A, V52D, H53A, Q55M, S56V
How it was run: as §1

ZFP SBS#1100 = molecular target: T10, ZFP SBS#1100 (synthetic)
T10 chain: T2 chain with E20Q, R21S, D23A, Q50R, S51G, V52D, H53A, Q55T
How it was run: as §1

ZFP SBS#478 = ZFP SBS#478 (synthetic, UniProt P08047)
How it was run: as §1

ZFP SBS#476 = ZFP SBS#476 (synthetic, UniProt P08047)
How it was run: as §1

ZFP SBS#477 = ZFP SBS#477 (synthetic)
How it was run: as §1

ZFP SBS#1161 = molecular target: T11, ZFP SBS#1161 (synthetic)
T11 chain: T1 chain with Q50D, S51R, N53D, V55T, R83A, E84R
How it was run: as §1

ZFP SBS#1178 = molecular target: T12, ZFP SBS#1178 (synthetic)
T12 chain: T1 chain with Q50T, S52G, R83A, E84R
How it was run: as §1

ZFP SBS#1131 = molecular target: T13, ZFP SBS#1131 (synthetic)
T13 chain: T2 chain with S51R, V52A, Q55E, S56R
How it was run: as §1

ZFP SBS#1176 = ZFP SBS#1176 (synthetic)
How it was run: as §1

ZFP SBS#1160 = molecular target: T14, ZFP SBS#1160 (synthetic)
T14 chain: T1 chain with N81H, R83T, E84T
How it was run: as §1

ZFP SBS#1175 = ZFP SBS#1175 (synthetic)
How it was run: as §1

ZFP SBS#1128 = molecular target: T15, ZFP SBS#1128 (synthetic)
T15 chain: T2 chain with Q50D, S51P, V52G, H53A, Q55V, S56R, A81N, R84Q
How it was run: as §1

ZFP SBS#1174 = ZFP SBS#1174 (synthetic)
How it was run: as §1

ZFP SBS#1173 = ZFP SBS#1173 (synthetic)
How it was run: as §1

ZFP SBS#1172 = molecular target: T16, ZFP SBS#1172 (synthetic)
T16 chain: T5 chain with A23N, R25T, E26R, E53H, Q55T, R78E, S79R, D80G, N81D, Q84R
How it was run: as §1

ZFP SBS#1098 = ZFP SBS#1098 (synthetic)
How it was run: as §1

ZFP SBS#1166 = ZFP SBS#1166 (synthetic)
How it was run: as §1

ZFP SBS#1165 = ZFP SBS#1165 (synthetic)
How it was run: as §1

ZFP SBS#1167 = ZFP SBS#1167 (synthetic)
How it was run: as §1

ZFP SBS#1091 = molecular target: T17, ZFP SBS#1091 (synthetic)
T17 chain: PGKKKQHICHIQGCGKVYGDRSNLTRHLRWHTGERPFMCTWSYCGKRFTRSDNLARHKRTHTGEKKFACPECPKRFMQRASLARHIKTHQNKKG
How it was run: as §1

ZFP SBS#1169 = molecular target: T18, ZFP SBS#1169 (synthetic)
T18 chain: T17 chain with R79S, A80S, A83V
How it was run: as §1

ZFP SBS#1126 = molecular target: T19, ZFP SBS#1126 (synthetic)
T19 chain: T5 chain with R25T, E26S, R50T, D52G, Q55V, S79G, N81A, Q84S
How it was run: as §1

ZFP SBS#1181 = molecular target: T20, ZFP SBS#1181 (synthetic)
T20 chain: T5 chain with E26Q, R50T, D52G, Q55V, S79G, N81A, Q84S
How it was run: as §1

ZFP SBS#1092 = molecular target: T21, ZFP SBS#1092 (synthetic)
T21 chain: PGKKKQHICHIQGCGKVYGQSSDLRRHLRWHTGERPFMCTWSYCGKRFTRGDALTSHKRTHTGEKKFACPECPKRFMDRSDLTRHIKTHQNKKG
How it was run: as §1

ZFP SBS#1170 = molecular target: T22, ZFP SBS#1170 (synthetic)
T22 chain: T21 chain with G51A, T55M, S56V
How it was run: as §1

B1: CAGGAAGGC (dsDNA)
DNA 1: CAGGAAGGC
DNA 2: GCCTTCCTG
**Q.** What does the source list for B1?
**A.** Kd (ZFP SBS#1183): 1.94 nM; Kd (ZFP SBS#1182): 1.48 nM

B2: GTGTGAGCC (dsDNA)
DNA 1: GTGTGAGCC
DNA 2: GGCTCACAC
**Q.** Which results are given for B2?
**A.** Kd (ZFP SBS#1164): 15.4 nM; Kd (ZFP SBS#1163): 1.45 nM

B3: CCGGGCGCA (dsDNA)
DNA 1: CCGGGCGCA
DNA 2: TGCGCCCGG
**Q.** For B3, which Kd (ZFP SBS#1177) is on record?
**A.** 4.1 nM

B4: AAGGCGCTG (dsDNA)
DNA 1: AAGGCGCTG
DNA 2: CAGCGCCTT
**Q.** B4 was tested. Which Kd (ZFP SBS#1168) did it give?
**A.** 2.8 nM

**Q.** What about the Kd (ZFP SBS#1090) of the same binder?
**A.** 30.3 nM

B5: GCGGAGTCG (dsDNA)
DNA 1: GCGGAGTCG
DNA 2: CGACTCCGC
**Q.** What does the source list for B5?
**A.** Kd (ZFP SBS#1099): 0.45 nM; Kd (ZFP SBS#1093): 0.046 nM; Kd (ZFP SBS#1171): 0.18 nM

B6: AGGGGAGAA (dsDNA)
DNA 1: AGGGGAGAA
DNA 2: TTCTCCCCT
**Q.** With B6 as the binder, how does the Kd (ZFP SBS#1159) read?
**A.** 0.555 nM

**Q.** And the Kd (ZFP SBS#1158)?
**A.** 0.1 nM

B7: GTGTTGGTA (dsDNA)
DNA 1: GTGTTGGTA
DNA 2: TACCAACAC
**Q.** Which results are given for B7?
**A.** Kd (ZFP SBS#1162): 0.465 nM; Kd (ZFP SBS#1100): 1.4 nM

B8: GGAGAGGATG (dsDNA)
DNA 1: GGAGAGGATG
DNA 2: CATCCTCTCC
**Q.** With B8 as the binder, how does the Kd (ZFP SBS#478) read?
**A.** 60 nM

**Q.** What about the Kd (ZFP SBS#476) of the same binder?
**A.** 80 nM

**Q.** And the Kd (ZFP SBS#477)?
**A.** 100 nM

B9: GAGGCCGGC (dsDNA)
DNA 1: GAGGCCGGC
DNA 2: GCCGGCCTC
**Q.** Which Kd (ZFP SBS#1161) does the source give for B9 here?
**A.** 0.45 nM

B10: GAGGATGGC (dsDNA)
DNA 1: GAGGATGGC
DNA 2: GCCATCCTC
**Q.** B10 was tested. Which Kd (ZFP SBS#1178) did it give?
**A.** 0.085 nM

B11: GTGGGAGCC (dsDNA)
DNA 1: GTGGGAGCC
DNA 2: GGCTCCCAC
**Q.** B11 was tested. Which Kd (ZFP SBS#1131) did it give?
**A.** 0.95 nM

**Q.** What about the Kd (ZFP SBS#1176) of the same binder?
**A.** 4.1 nM

B12: TGGGAAGGC (dsDNA)
DNA 1: TGGGAAGGC
DNA 2: GCCTTCCCA
**Q.** With B12 as the binder, how does the Kd (ZFP SBS#1160) read?
**A.** 0.415 nM

B13: AAGGTCGCC (dsDNA)
DNA 1: AAGGTCGCC
DNA 2: GGCGACCTT
**Q.** With B13 as the binder, how does the Kd (ZFP SBS#1175) read?
**A.** 8.9 nM

**Q.** What about the Kd (ZFP SBS#1128) of the same binder?
**A.** 5.45 nM

B14: GCTGAAGGG (dsDNA)
DNA 1: GCTGAAGGG
DNA 2: CCCTTCAGC
**Q.** What does the source list for B14?
**A.** Kd (ZFP SBS#1174): 0.018 nM; Kd (ZFP SBS#1173): 8 pM

B15: GCCGGGGAG (dsDNA)
DNA 1: GCCGGGGAG
DNA 2: CTCCCCGGC
**Q.** Which Kd (ZFP SBS#1172) does the source give for B15 here?
**A.** 0.01 nM

**Q.** And the Kd (ZFP SBS#1098)?
**A.** 0.055 nM

B16: GCGAAGGTG (dsDNA)
DNA 1: GCGAAGGTG
DNA 2: CACCTTCGC
**Q.** Which results are given for B16?
**A.** Kd (ZFP SBS#1166): 0.195 nM; Kd (ZFP SBS#1165): 1.4 nM; Kd (ZFP SBS#1167): 0.95 nM

B17: GTAGAGGAC (dsDNA)
DNA 1: GTAGAGGAC
DNA 2: GTCCTCTAC
**Q.** B17 was tested. Which Kd (ZFP SBS#1091) did it give?
**A.** 0.085 nM

**Q.** What about the Kd (ZFP SBS#1169) of the same binder?
**A.** 0.053 nM

B18: TTGGCTATG (dsDNA)
DNA 1: TTGGCTATG
DNA 2: CATAGCCAA
**Q.** Which results are given for B18?
**A.** Kd (ZFP SBS#1126): 0.46 nM; Kd (ZFP SBS#1181): 8.2 nM

B19: GCCTTGGCT (dsDNA)
DNA 1: GCCTTGGCT
DNA 2: AGCCAAGGC
**Q.** With B19 as the binder, how does the Kd (ZFP SBS#1092) read?
**A.** 2.73 nM

**Q.** What about the Kd (ZFP SBS#1170) of the same binder?
**A.** 2.75 nM
